Numbering of substitutions follows the chain as printed.
T1: human CD166 protein (human) (UniProt Q13740)
T1 sequence (looked up): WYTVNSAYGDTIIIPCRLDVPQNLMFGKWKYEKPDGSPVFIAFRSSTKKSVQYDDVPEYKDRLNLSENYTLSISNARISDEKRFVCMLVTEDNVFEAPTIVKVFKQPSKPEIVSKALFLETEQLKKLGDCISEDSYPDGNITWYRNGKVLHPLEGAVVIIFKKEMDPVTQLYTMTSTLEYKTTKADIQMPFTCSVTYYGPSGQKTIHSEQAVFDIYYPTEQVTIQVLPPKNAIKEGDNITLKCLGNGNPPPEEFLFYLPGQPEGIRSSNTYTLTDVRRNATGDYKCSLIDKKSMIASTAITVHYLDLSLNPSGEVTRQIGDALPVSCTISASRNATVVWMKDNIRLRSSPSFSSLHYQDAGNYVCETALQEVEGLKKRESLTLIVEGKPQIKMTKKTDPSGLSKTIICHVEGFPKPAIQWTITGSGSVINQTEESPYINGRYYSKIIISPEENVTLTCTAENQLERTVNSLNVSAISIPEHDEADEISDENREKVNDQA

B1: CD166-16522.18-2001 (antibody, part only; not given: linkers and constant regions, V domains shown, not shown: small tags and cut ends)
VH: QITLKESGPTLVKPTQTLTLTCTFSGFSLSTYGMGVGWIRQPPGKALEWLANIWWSEDKHYSPSLKSRLTITKDTSKNQVVLTMTNMDPVDTATYYCVQIDYGNDYAFTYWGQGTLVTVSS
VL, part: LEGWCLHPACLWGAGISSGLLSGRSDNHDIVMTQSPLSLPVTPGEPASISCRSSKSLLHSNGITYLYWYLQKPGQSPQLLIYQMSNLASGVPDRFSGSGSGTDFTLKISRVEAEDVGVYYCAQNLELPYTFGQGTKLEIK
B2: CD166-16522.19-2001 (antibody, part only; not given: linkers and constant regions, V domains shown, not shown: small tags and cut ends)
VH: B1 VH
VL, part: B1 VL, part with A9L, L11A
B3: CD166-16522.20-2001 (antibody, part only; not given: linkers and constant regions, V domains shown, not shown: small tags and cut ends)
VH: B1 VH
VL, part: B1 VL, part with A9L, W12A
B4: CD166-16522.21-2001 (antibody, part only; not given: linkers and constant regions, V domains shown, not shown: small tags and cut ends)
VH: B1 VH
VL, part: CLHPLCISSGLLSGRSDNHDIVMTQSPLSLPVTPGEPASISCRSSKSLLHSNGITYLYWYLQKPGQSPQLLIYQMSNLASGVPDRFSGSGSGTDFTLKISRVEAEDVGVYYCAQNLELPYTFGQGTKLEIK

These binders were tested against T1, human CD166 protein (human) (assay: ELISA; relative to parental CD166 M9 vk1/HcB).

Fold Increase in Kd	Binder
13 fold	B1
11 fold	B2
158 fold	B3
33 fold	B4

These binders were tested against T1, human CD166 protein (human) (assay: ELISA, human CD166 protein coated; apparent Kd).

Kd	Binder
57.7 nM	B1
49.2 nM	B2
700 nM	B3
145 nM	B4

— patent publication US20160355587A1
